# Data published in the domain aggregation screens of Martell et al. (2025).
# Assay: soluble fraction after stress (log2 fold change); higher = more stays soluble; pooled small domains, quantitative proteomics
# Settings: stress: pH 4
# In short: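 Custom libraries of small protein domains were pooled and exposed to pH 4. High-throughput quantitative proteomics then measured the log2 fold change in the amount of each domain still soluble, with higher values meaning more stayed soluble. This soluble-fraction fold change stands for aggregation propensity.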
row,Sequence,soluble fraction (log2)
1,HMLSYNINEESKSSIMNVNVLKNNFASIDVEKLQNIIFTTFKKYNYYLNDFSSMNLLLHLLIIVDREL,-0.172
2,HMTLPELTDRELQILQLLSVGNSSQKIAKQLNISTHTVSTHRKQLLRKLGAQNGADLIRRAQKLGIL,0.0897
3,HMDSKKNLLGKNGLAFTTLRPAGTVLIDGQRHDVISNGDMIPKGATVRVIAIEGASITVEALPD,-0.309
4,HMAEDDAVQKAVREAVAESADAVADYKAGSERALNFIVGVVMKKTRGKASPGEVHRLVKAEVEK,0.143
5,HMAFRWQQIADTITSMIANGSYPRGSRLPTEAALADSFGVNRHTVRRAVAALRDTGLVQPRQGAGVFVIG,-0.103
6,HMTTYVNGSWSGWNGSTVVKLTDGSVWRQAEYHYEYHYAYRPQARLERDELFVEGMSRGVRV,-0.754
7,HMRTGSSVLVGLVAPVRLGATGAPKVFADGALWEARSAVPLNDGQLVEITGTDGLTVLVKPSA,0.138
8,HMTGLRETIPAALDGERLDRVVALLGDVSRSRASAALEAERVTLDGEVVTLRSHRVREGEELTVAGFE,0.177
9,HMDLFREERRQAILDWLATAGRVSVAELSASFGVSEVTVRADLQALADRRLVVRTHGGAMMAG,-0.955
10,HMKRITKKELKQAIVDVFADKPGQSFNYKQLATIIGIKDDPTRRMITDILYELVQEERIVELYRGKFKMEM,-0.335
11,HMQNEVMPYSTFLSEVNSGNVTKVKIDHEQLTGTLKSGKQFTTYILDAATLPSIVAEKGVEVEVVPP,0.195
12,HMRGPTIELLIQKSALYEELDDSENALKEILKAFDRDSLNSDVLNRLVNLLLNDKQIDRAENYNQLLIEK,-0.847
13,HMIPYQDPLPKGAEESLLSKYPGFEITGVHFVNDTNFIGYKVRLERGEDREEISLDVNGKFL,-0.169
14,HMEDIEEVIVEIDTVLRTHFDRGRTEVLFAEIETAGGRPFMTYLALLFMAHRGSVRLQQDDLFGDLWVKDP,-0.959
15,HMEVQVGKQVRAFRETLGMTVQQFAERTGFSAALLAQIENRMVSPSLGTLVKIANTFGTTVSSFIG,-0.38
16,HMASQVERGAVVVTDQRIFFIGVSSEGIEVHGTKIFGMSEKAPLYSHMKGLKKGDSFQFNGLKYVIQDIY,-0.916
17,HMAQVVMPNVVGKTEKDATATLEGKNLKVNVEYNLDATSDDGIVKEQSIKSGENIDEGTEITLKVNKV,-1.69
18,HMNAQLTTIPDLDGMNMRAATAMLSSLGLEVKRIGSGTVFAQFPKAGAAMRPGSMVTIRGKAKSL,0.22
19,HMQTASVRFADGQLEVKQKGLQRVSVYSLNGMTVANKAVQGQDYVTISLPRAAYIVKITTQNGSFTKVI,0.218
20,HMREGNELLGKEGVTVSELRPAGIALIDGRRTDVVTDGEFVAVDQAVEVVEVSGNRVVVRRS,0.0769
21,HMYVKIAADAAMPYTIKRVVTDYSSAALDAAYDGSLPKWLTISSSTKDAGSGLYRHEIIYTVTAHPE,-0.942
22,HMVDIVLDILKIVAEKQPGNQFSQSILMQYQERGGLSKKQLEGLYGKAKRIPEIPQNKLATLEAIILR,-0.428
23,HMNKEQIASNIAEARKRSGLNQSELARRLGIRPQSVQQWEKGTATPKLDRLTAIAQVLGVSLESLTG,0.22
24,HMNLPISDREKELLTLLSKGLLYKEIASKLDITIGTVKQHIHNIYHKLHVSNKTEALNLFNK,0.172
25,HMNEVIIKNWSNAVGRNIKIKTKRGRPIFGRLLAINDQQLTIASKYMRGNATITVAREDVVSMSVS,0.22
26,HMENRREYQKAIDYLSDQIRAGTLTVGSRLPTERAIAEALGISRNSTREALRTMENMGMIESKQGSGHYLT,-0.0814
27,HMNAFEIYPNPASNLIRIDAEFTVAKIFSQTGNLIQTSTTKEIDVYNLANGIYFVKLDDSPSMVKFVIN,-1.09
28,HMTGSLRIKHKTYYMLFSWKDESGQWRQKSESTGIPERGGKRKAQEMLNTRLEELQLQSTASL,0.199

row,Sequence,soluble fraction (log2)
1,HMDASSAVQFGSLLRDARRRQGLSQAELGGDKYSGSYISHLESGRRVATPEVIEFLSRRLGVSPLEWGVS,-0.026
2,HMGQISDEETLKTVASRIIDANPDEARKYRSGKTGLLGFFVGQVMKATQGEANPKLASRIVKELLE,≥ 0.43
3,HMDRKEEIIIVTLKLASQIGLSNVSMEQIAKQVGIKKPSLYNHFKSKDEIIDAMYEYLREKSKN,-1.16
4,HMETVPMIDLRGMTQEQAEKAIVGLGLTVGTVDHSSSDMPAGQVWFQSVEPKDEVAPGTKVNIIISTGS,-0.128
5,HMLLELINLQVKILENEELKIIGKVIDLENEKNNLLVIELLKDQKKVLVPFVKEIVPLIDIKNNFIMINPP,-0.703
6,HMGRYATVPDVVGSTPEVARELIRSEGLRYVLSEETVYSDSDTGTVGRTDPESGTRMSADDEVVVYLS,-1.27
7,HMRKAERHLLIKQVIDEFTIRTQEELLAKLSDYGVNATQATISRDIRDLKIVKAPDENGISRFVFF,-0.358
8,HMDDLIIQIELKQEGLEITGLKVLLKEDSVIDEQVKQTIRRKIERFLVNLYGNPNVYVSKFSMGI,-1.36
9,HMPGIDDAAVEHAERVLAQHIGPMARLLVRRTVPRAANLFDLHRRLGALIPESEPRTAFLSAVVT,0.0209
10,HMSKPTLTDELLTLDLFEEIIKAKENAKGANKRFSLVGFLESKYIVDQEMLPKVNVKVTEYYNLTREN,-1.8
11,HMEFDFGAILSGNGGSELYSGYSAEQKAALVEAAKADGMDVEFGADGSTTFKDKDGSEVVQKADGTWTV,-0.0653
12,HMGVAAPMPGTITDVRVKVGDRVQPRTVVMMLEAMKMENEIFAGRAGVVSQVAVEKGASVNTGDLLISIDP,0.325
13,HMQEERLTFDTLLGISGIGPRLALAVLSRFTPGSLAAAVDAGDTKAFSAVPGVGNRTASRIILELKGKL,-0.238
14,HMIMLDRILKIMDYNKFTPSEFADVLEIDRSRLSHILNGRNKPSLEIVMKILEKFPEISSDWLLFGSGNML,-2.01
15,HMVTINTASLEKAIADAKAVVKESYTTDSYNAMKAVLDEAEDLLKEEAQDQDTIDAKTEALNAAIEALVKR,-0.337
16,HMRHRITEKDKQFRIGQQVWHSEYGKGMVLSVDGIGSSARLTVSFVSGKLAKIIGTFVSTEP,-0.982
17,HMSTMKIVRVKSNLKIGQEITSKDIEVVEVGAYNMPSEVMKNSEDVIGKYASAEMIKGEYVLAAKISDTP,-0.902
18,HMQKPWFYESSGQRKGGFSEQEMVGLITDGEITHGAIVWRNGLSDWTKLEQTELAAHLDKTA,-1.06
19,HMRFANGHLIWDTIIELRNAERRINRRALADLTGLKPGVVDDHVERWIEKDQLRRAGNGELEVV,-0.24
20,HMRGDQLREHLLWTAKDVFLELGFERASMDAVAARAETSKRSLYAHFESKEKLFLAVIDLVRG,-1.65
21,HMSPIQLKYNEYLIYIDEGKINTAEIHGNKITGKLKEGSEYVVTIYPELIASITEKLAENNVQTQLIQ,-0.466
22,HMNAMFEKVLAAVMGFIGVSAFAKNADGKSEMTSDQEKRLTDKWGSKFVEEFKNDLLEYEKNGNAAEDAV,-0.332
23,HMLLTHPKRVFTYELIMELVWNEDYTFYSKKAVSNHMSNLRKKLKVTPDALDYIKNIVGVGYKFEA,-0.0812
24,HMAVVQMVDRPGGLDELLKDVVRAGVNFANAYGRTASDGNSAFFVIDIQDIPGARQKLADVGLQILADEAV,-0.512
25,HMYAEVTITIEKGMTSDSVSKLLYKAGIVDDAKEFNNYIIKAGKSTKILIGEFTIQKGASYDDIIKIIA,-0.133
26,HMTKQNVVPLMYRMIDTLEQFIKADVPFNIETRLARVERLRETMVSSSVTTSEKFRQVLEAYTIETD,-1.53
27,HMAKQEPTDNGYDIYKVTASVLNVRNGAGTSYAVAYQLSKEDYVEVVSIDKGWAKLKDGKYVSADWITLYK,-0.596
